Assay results published in patent US6300312A, “Antagonists of G-protein-coupled receptor” (Hô ;pital Sainte-Justine, priority 2000, dated 2001).

Columns and labels:
FP receptor = molecular target: T1, FP receptor (Homo sapiens, UniProt P43088); assay: Phosphoinositide hydrolysis in A549 cells stably expressing the peptides, stimulated with PGF2α; assay type: cell-based; settings: peptide stably expressed intracellularly in A549 cells; 1 μM PGF2α, 30 min; n=3; FIG. 1A
T1 construct: introduced transiently into permeabilized A549 cells; endogenous in cells; host or cells: A549 lung carcinoma cells (ATCC CCL185)
T1 sequence (P43088 whole entry): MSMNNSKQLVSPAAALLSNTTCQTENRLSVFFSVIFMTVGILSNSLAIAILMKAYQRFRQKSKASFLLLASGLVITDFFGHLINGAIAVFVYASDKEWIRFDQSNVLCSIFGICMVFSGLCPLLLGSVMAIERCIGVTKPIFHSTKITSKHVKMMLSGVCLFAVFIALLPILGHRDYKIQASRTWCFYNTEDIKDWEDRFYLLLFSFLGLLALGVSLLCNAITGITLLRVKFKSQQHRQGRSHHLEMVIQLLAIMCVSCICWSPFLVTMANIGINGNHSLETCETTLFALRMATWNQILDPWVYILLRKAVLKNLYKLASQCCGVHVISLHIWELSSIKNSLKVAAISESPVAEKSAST
Description: (§1) A549 lung carcinoma cells (ATCC Accession No.: CCL185, American Type Culture Collection, Rockville, Md. 20852) were cultured in Dulbecco's modified Eagles medium (DMEM) with 10% fetal bovine serum (FBS) and antibiotics, penicillin (10 U/ml) and streptomycin (10 μg/ml) in a humidified atmosphere containing 5% CO2 at 37° C. The cells were trypsinized and plated in 6-well tissue culture dishes at 2×10^5 cells/well, a day before commencing the experiments.
(§2) The expression plasmids carrying the third (PCP-1) and the fourth (PCP-2) intracellular domains were introduced into A549 cells using Transfectamine lipid (GIBCO Life Technologies, Burlington, ON). Three (3) micrograms of DNA and 16 μg of lipid were mixed in 200 μl of water and incubated at room temperature for 45 min. Then, the lipid-DNA complexes were diluted with 0.8 ml of Opti-MEM™ (GIBCO Life Technologies, Burlington, ON). The cells were washed twice with Hank's Balanced Salt Solution and incubated with lipid-DNA complexes for 6 hours. An equal volume of DMEM with 20% FBS was added and the cells were kept in the incubator overnight. On the next day, the medium was replaced with DMEM containing 10% FBS and antibiotics and incubated for another 24 hours. […]

EP1 = molecular target: T2, EP1 (Homo sapiens, UniProt P34995); assay: Phosphoinositide hydrolysis in A549 cells stably expressing the peptides, stimulated with PGE2; assay type: cell-based; settings: peptide stably expressed intracellularly in A549 cells; 1 μM PGE2, 30 min; FIG. 1B
T2 construct: a related prostaglandin receptor expressed in these cells; endogenous in cells; host or cells: A549 lung carcinoma cells (ATCC CCL185)
T2 sequence (P34995 1-402): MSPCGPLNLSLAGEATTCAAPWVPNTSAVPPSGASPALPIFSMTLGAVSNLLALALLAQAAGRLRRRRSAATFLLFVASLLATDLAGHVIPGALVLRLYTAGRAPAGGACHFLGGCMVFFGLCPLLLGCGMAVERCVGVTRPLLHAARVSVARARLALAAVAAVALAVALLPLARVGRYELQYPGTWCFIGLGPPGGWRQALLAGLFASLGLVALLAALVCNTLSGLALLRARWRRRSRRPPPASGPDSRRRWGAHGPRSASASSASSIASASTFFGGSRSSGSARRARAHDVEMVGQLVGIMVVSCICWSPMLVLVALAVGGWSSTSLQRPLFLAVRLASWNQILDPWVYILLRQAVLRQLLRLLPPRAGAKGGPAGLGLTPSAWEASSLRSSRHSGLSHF
Description: as §1, §2

| ligand-stimulated phosphoinositide hydrolysis (fold stimulation over unstimulated controls) (FP receptor) | inositol phosphate generation by EP1 receptor on stimulation with PGE2 (EP1) | Sequence |
| --- | --- | --- |
| inhibited | did not affect | RKAVLKNLYKLASQCCGVHVISLHIWELSSIKNSLKVAAISESPVAEKSAST (RKAVLKNLYKLASQCCGVHVISLHIWELSSIKNSLKVAAISESPVAEKSAST) [PCP-2, fourth intracellular domain of the human FP receptor, expressed intracellularly from a plasmid] |
| inhibited | did not affect | RVKFKSQQHR QGRSHHLEM (RVKFKSQQHRQGRSHHLEM) [PCP-1, third intracellular domain of the human FP receptor, expressed intracellularly from a plasmid] |
